{"source": "patent US20180016354A1", "about": "(Merck KGaA, published 2018)", "key": {"[1]": {"molecular_target": "T1, EGFR (on EGFR-expressing A431 cells) (UniProt P00533 25-1210, limits assumed)", "T1 construct": "whole, on cells; A431 is a human cell line; also called EGFR-positive cells; EGFR-overexpressing A431 cells", "experiment": "flow cytometry on A431 cells"}, "[2]": {"molecular_target": "T1, EGFR (on EGFR-expressing A431 cells)", "experiment": "cell-based or functional assay"}, "[3]": {"molecular_target": "CD3 (on activated primary T cells) (UniProt P07766 23-207)", "experiment": "cell-based or functional assay"}, "[4]": {"molecular_target": "T2, CD16a receptor (FcγIIIa) (UniProt P08637 17-254, limits assumed)", "T2 construct": "whole, on cells", "T2 sequence (P08637 17-254 limits assumed)": "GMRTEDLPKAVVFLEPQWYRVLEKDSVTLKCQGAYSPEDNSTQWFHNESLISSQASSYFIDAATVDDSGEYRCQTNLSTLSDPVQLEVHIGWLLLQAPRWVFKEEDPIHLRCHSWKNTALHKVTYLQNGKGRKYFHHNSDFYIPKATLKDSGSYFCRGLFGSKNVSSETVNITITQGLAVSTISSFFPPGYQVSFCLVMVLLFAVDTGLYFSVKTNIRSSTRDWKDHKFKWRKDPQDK", "experiment": "CD16a HTRF cellular binding assay, competition with labeled human IgG", "experimental": "(§1) FIG. 14: Binding of antibodies to CD16a receptor. Binding was measured using CD16a HTRF cellular binding assay (CisBio). Measurement was performed in duplicates."}, "[5]": {"molecular_target": "T2, CD16a receptor (FcγIIIa)", "experiment": "cell-based or functional assay"}, "[6]": {"molecular_target": "T2, CD16a receptor (FcγIIIa)", "experiment": "CD16a HTRF cellular binding assay (CisBio), competition with labeled human IgG", "experimental": "as §1"}}}
{"binder": "domain-exchanged heterodimeric bispecific antibody 1, BsAb1 (anti-CD3× anti-EGFR CH3-KiH) (bispecific antibody, human IgG1, kappa, hu425 (Matuzumab) Fv in the CH3 domain-exchanged Fab arm, OKT3 Fv in the native Fab arm; SEED AG/GA Fc; also called domain-exchanged heterodimeric antibody 1; domain-exchanged bispecific antibody 1) heavy 1: QVQLVQSGAEVKKPGASVKVSCKASGYTFTSHWMHWVRQAPGQGLEWIGEFNPSNGRTNYNEKFKSKATMTVDTSTNTAYMELSSLRSEDTAVYYCASRDYDYDGRYFDYWGQGTLVTVSSASTKGEPQVYTLPPSRDELTKNQVSLYCLVKGFYPSDIAVEWESNGQPENNYKTTPPVLDSDGSFFLYSKLTVDKSRWQQGNVFSCSVMHEALHNHYTQKSLSLSKSCDKTHTCPPCPAPELLGGPSVFLFPPKPKDTLMISRTPEVTCVVVDVSHEDPEVKFNWYVDGVEVHNAKTKPREEQYNSTYRVVSVLTVLHQDWLNGKEYKCKVSNKALPAPIEKTISKAKGQPFRPEVHLLPPSREEMTKNQVSLTCLARGFYPKDIAVEWESNGQPENNYKTTPSRQEPSQGTTTFAVTSKLTVDKSRWQQGNVFSCSVMHEALHNHYTQKTISLSPGK heavy 2: QVQLVQSGGGVVQPGRSLRLSCKASGYTFTRYTMHWVRQAPGKGLEWIGYINPSRGYTNYNQKVKDRFTISRDNSKNTAFLQMDSLRPEDTGVYFCARYYDDHYCLDYWGQGTPVTVSSASTKGPSVFPLAPSSKSTSGGTAALGCLVKDYFPEPVTVSWNSGALTSGVHTFPAVLQSSGLYSLSSVVTVPSSSLGTQTYICNVNHKPSNTKVDKKVEPKSCDKTHTCPPCPAPELLGGPSVFLFPPKPKDTLMISRTPEVTCVVVDVSHEDPEVKFNWYVDGVEVHNAKTKPREEQYNSTYRVVSVLTVLHQDWLNGKEYKCKVSNKALPAPIEKTISKAKGQPREPQVYTLPPPSEELALNELVTLTCLVKGFYPSDIAVEWLQGSQELPREKYLTWAPVLDSDGSFFLYSILRVAAEDWKKGDTFSCSVMHEALHNHYTQKSLDRSPGK light 1: DIQMTQSPSSLSASVGDRVTITCSASSSVTYMYWYQQKPGKAPKLLIYDTSNLASGVPSRFSGSGSGTDYTFTISSLQPEDIATYYCQQWSSHIFTFGQGTKVEIKRTVAEPQVYTLPPSRDELTKNQVSLTCLVKGFYPSDIAVEWESNGQPENNYKTTPPVLDSDGSFFLTSKLTVDKSRWQQGNVFSCSVMHEALHNHYTQKSLSLSGEC light 2: DIQMTQSPSSLSASVGDRVTITCSASSSVSYMNWYQQTPGKAPKRWIYDTSKLASGVPSRFSGSGSGTDYTFTISSLQPEDIATYYCQQWSSNPFTFGQGTKLQITRTVAAPSVFIFPPSDEQLKSGTASVVCLLNNFYPREAKVQWKVDNALQSGNSQESVTEQDSKDSTYSLSSTLTLSKADYEKHKVYACEVTHQGLSSPVTKSFNRGEC", "values": [{"measurement": "EC50", "setting": "[1]", "result": "~7", "unit": "nM"}, {"measurement": "EC50 of redirected lysis of A431 cells by activated T cells (LDH release)", "setting": "[2]", "result": "0.1 to 0.3", "unit": "nM"}, {"measurement": "EC50 of redirected lysis of A431 cells by activated T cells (LDH release)", "setting": "[3]", "result": "0.1 to 0.3", "unit": "nM"}]}
{"binder": "Effector Negative (EN) isotype domain-exchanged bispecific antibody BsAb2 (anti-CD16× anti-EGFR CH3-KiH), BsAb2 EN (bispecific antibody, human IgG1, kappa, also called EN BsAb2; effector negative IgG2 variant of BsAb2) heavy 1: QVQLVQSGAEVKKPGASVKVSCKASGYTFTSHWMHWVRQAPGQGLEWIGEFNPSNGRTNYNEKFKSKATMTVDTSTNTAYMELSSLRSEDTAVYYCASRDYDYDGRYFDYWGQGTLVTVSSASTKGEPQVYTLPPSRDELTKNQVSLYCLVKGFYPSDIAVEWESNGQPENNYKTTPPVLDSDGSFFLYSKLTVDKSRWQQGNVFSCSVMHEALHNHYTQKSLSLSKSCDKTHTCPPCPAPPVAGPSVFLFPPKPKDTLMISRTPEVTCVVVDVSHEDPEVQFNWYVDGVEVHNAKTKPREEQAQSTFRVVSVLTVVHQDWLNGKEYKCKVSNKGLPAPIEKTISKTKGQPFRPEVHLLPPSREEMTKNQVSLTCLARGFYPKDIAVEWESNGQPENNYKTTPSRQEPSQGTTTFAVTSKLTVDKSRWQQGNVFSCSVMHEALHNHYTQKTISLSPGK heavy 2: not shown light 1: DIQMTQSPSSLSASVGDRVTITCSASSSVTYMYWYQQKPGKAPKLLIYDTSNLASGVPSRFSGSGSGTDYTFTISSLQPEDIATYYCQQWSSHIFTFGQGTKVEIKRTVAEPQVYTLPPSRDELTKNQVSLTCLVKGFYPSDIAVEWESNGQPENNYKTTPPVLDSDGSFFLTSKLTVDKSRWQQGNVFSCSVMHEALHNHYTQKSLSLSGEC light 2: not shown", "values": [{"measurement": "IC50", "setting": "[4]", "result": "~3.6", "unit": "nM"}, {"measurement": "EC50 of lysis of A431 cells by redirected NK cells (LDH release)", "setting": "[5]", "result": 0.037, "unit": "nM"}, {"measurement": "lysis of A431 cells by redirected NK cells (LDH release)", "setting": "[5]", "result": "≤ 50", "unit": "%"}, {"measurement": "EC50 of lysis of A431 cells by redirected NK cells (LDH release)", "setting": "[2]", "result": 0.037, "unit": "nM"}, {"measurement": "lysis of A431 cells by redirected NK cells (LDH release)", "setting": "[2]", "result": "≤ 50", "unit": "%"}]}
{"binder": "One-armed Effector Negative (EN) domain-exchanged anti-EGFR antibody (antibody, One Fab arm only; effector negative Fc (modified IgG2 CH2 F296A, N297Q); also called one-armed domain-exchanged EN anti-EGFR antibody; one-armed effector negative anti-EGFR antibody) heavy: QVQLVQSGAEVKKPGASVKVSCKASGYTFTSHWMHWVRQAPGQGLEWIGEFNPSNGRTNYNEKFKSKATMTVDTSTNTAYMELSSLRSEDTAVYYCASRDYDYDGRYFDYWGQGTLVTVSSASTKGEPQVYTLPPSRDELTKNQVSLYCLVKGFYPSDIAVEWESNGQPENNYKTTPPVLDSDGSFFLYSKLTVDKSRWQQGNVFSCSVMHEALHNHYTQKSLSLSKSCDKTHTCPPCPAPPVAGPSVFLFPPKPKDTLMISRTPEVTCVVVDVSHEDPEVQFNWYVDGVEVHNAKTKPREEQAQSTFRVVSVLTVVHQDWLNGKEYKCKVSNKGLPAPIEKTISKTKGQPFRPEVHLLPPSREEMTKNQVSLTCLARGFYPKDIAVEWESNGQPENNYKTTPSRQEPSQGTTTFAVTSKLTVDKSRWQQGNVFSCSVMHEALHNHYTQKTISLSPGK EPKSSDKTHTCPPCPAPPVAGPSVFLFPPKPKDTLMISRTPEVTCVVVDVSHEDPEVQFNWYVDGVEVHNAKTKPREEQAQSTFRVVSVLTVVHQDWLNGKEYKCKVSNKGLPAPIEKTISKTKGQPREPQVYTLPPPSEELALNELVTLTCLVKGFYPSDIAVEWLQGSQELPREKYLTWAPVLDSDGSFFLYSILRVAAEDWKKGDTFSCSVMHEALHNHYTQKSLDRSPGK light: DIQMTQSPSSLSASVGDRVTITCSASSSVTYMYWYQQKPGKAPKLLIYDTSNLASGVPSRFSGSGSGTDYTFTISSLQPEDIATYYCQQWSSHIFTFGQGTKVEIKRTVAEPQVYTLPPSRDELTKNQVSLTCLVKGFYPSDIAVEWESNGQPENNYKTTPPVLDSDGSFFLTSKLTVDKSRWQQGNVFSCSVMHEALHNHYTQKSLSLSGEC", "values": [{"measurement": "binding result", "setting": "[6]", "result": "no binding"}]}
{"binder": "domain-exchanged bispecific antibody 2, BsAb2 (anti-CD16× anti-EGFR CH3-KiH) (bispecific antibody, human IgG1, kappa, hu425 Fv in the domain-exchanged Fab arm, murine 3G8 (anti-CD16) Fv in the native Fab arm; also called effector positive BsAb2 variant) heavy 1: QVQLVQSGAEVKKPGASVKVSCKASGYTFTSHWMHWVRQAPGQGLEWIGEFNPSNGRTNYNEKFKSKATMTVDTSTNTAYMELSSLRSEDTAVYYCASRDYDYDGRYFDYWGQGTLVTVSSASTKGEPQVYTLPPSRDELTKNQVSLYCLVKGFYPSDIAVEWESNGQPENNYKTTPPVLDSDGSFFLYSKLTVDKSRWQQGNVFSCSVMHEALHNHYTQKSLSLSKSCDKTHTCPPCPAPELLGGPSVFLFPPKPKDTLMISRTPEVTCVVVDVSHEDPEVKFNWYVDGVEVHNAKTKPREEQYNSTYRVVSVLTVLHQDWLNGKEYKCKVSNKALPAPIEKTISKAKGQPFRPEVHLLPPSREEMTKNQVSLTCLARGFYPKDIAVEWESNGQPENNYKTTPSRQEPSQGTTTFAVTSKLTVDKSRWQQGNVFSCSVMHEALHNHYTQKTISLSPGK heavy 2: not shown light 1: DIQMTQSPSSLSASVGDRVTITCSASSSVTYMYWYQQKPGKAPKLLIYDTSNLASGVPSRFSGSGSGTDYTFTISSLQPEDIATYYCQQWSSHIFTFGQGTKVEIKRTVAEPQVYTLPPSRDELTKNQVSLTCLVKGFYPSDIAVEWESNGQPENNYKTTPPVLDSDGSFFLTSKLTVDKSRWQQGNVFSCSVMHEALHNHYTQKSLSLSGEC light 2: not shown", "values": [{"measurement": "IC50", "setting": "[4]", "result": "~0.3", "unit": "nM"}, {"measurement": "EC50 of lysis of A431 cells by redirected NK cells (LDH release)", "setting": "[5]", "result": 0.01, "unit": "nM"}, {"measurement": "lysis of A431 cells by redirected NK cells (LDH release)", "setting": "[5]", "result": "≤ 50", "unit": "%"}, {"measurement": "EC50 of lysis of A431 cells by redirected NK cells (LDH release)", "setting": "[2]", "result": 0.01, "unit": "nM"}, {"measurement": "lysis of A431 cells by redirected NK cells (LDH release)", "setting": "[2]", "result": "≤ 50", "unit": "%"}]}
